Changes are numbered by the printed parent chain. Names may count otherwise.

These results are taken from PMC4444329, “Disabling Mitochondrial Peroxide Metabolism via Combinatorial Targeting of Peroxiredoxin 3 as an Effective Therapeutic Approach for Malignant Mesothelioma” (PLoS ONE, 2015).

Series [1] concerns the molecule itself. Description: cross-linking; recombinant PRX3 incubated with indicated concentrations of thiostrepton (TS) for 30 min; reducing SDS-PAGE, immunoblot with anti-PRX3 antibody.
Series [2] deals with the molecule itself. Nature of the series: cross-linking; in vitro PRX3 turnover: 100 μM PRX3, 5 μM E. coli TRX2, 0.5 μM E. coli TR, NADPH regenerating system (or TCEP), 0.2 mM TS or DMSO, 16-18 h at 37°C, successive additions of 100 μM H2O2; reducing SDS-PAGE, GelCode Blue stain.
Series [3] deals with the molecule itself. Nature of the series: cross-linking; EE Mut cycled with and without TS as in the in vitro assay, treated with DTT, exchanged into 25 mM ammonium bicarbonate; intact mass by ESI-TOF MS.

B1: Human recombinant PRX3 (peroxiredoxin 3), wild type, residues 62-256 (enzyme, UniProt P30048 62-256, looked up)
chain: APAVTQHAPYFKGTAVVNGEFKDLSLDDFKGKYLVLFFYPLDFTFVCPTEIVAFSDKANEFHDVNCEVVAVSVDSHFSHLAWINTPRKNGGLGHMNIALLSDLTKQISRDYGVLLEGSGLALRGLFIIDPNGVIKHLSVNDLPVGRSVEETLRLVKAFQYVETHGEVCPANWTPDSPTIKPSPAASKEYFQKVNQ
notes: peroxiredoxin 3 (PRX3), human, PRDX3 gene residues 62-256, codon optimized, in pET15b; also called rPRX3; WT PRX3; source: E. coli C41 (DE3), purified (nickel-NTA, Q-Sepharose FF, Superdex 200); not shown: His-tag, N-terminal, kept
On to B1, for which the binding result in series [1] is “binds”.

B2: Human recombinant PRX3 C127S, residues 62-256 (enzyme, UniProt P30048 62-256, looked up)
chain: B1 chain with C66S
notes: peroxiredoxin 3 (PRX3), human, PRDX3 gene residues 62-256, non-catalytic cysteine replaced with serine; also called Cys127 mutant; source: E. coli C41 (DE3), purified (nickel-NTA, Q-Sepharose FF, Superdex 200); not shown: His-tag, N-terminal, kept
B2: in series [2], the binding result is listed as “binds”.

B3: Engineered dimer of PRX3, S139E/A142E (EE Mut), residues 62-256 (enzyme, human, UniProt P30048 62-256, looked up)
chain: B1 chain with S78E, A81E
notes: peroxiredoxin 3 (PRX3), human, PRDX3 gene residues 62-256, two charged residues introduced into the dimer-dimer interface; His-tag removed by digestion with biotinylated thrombin; Measured mass of the reduced monomer 21640.6 amu; also called EE mutant; dimeric variant of PRX3; source: E. coli C41 (DE3), purified (nickel-NTA, Q-Sepharose FF, Superdex 200); not shown: His-tag, N-terminal, cleaved
For B3, in series [3], the “stoichiometry N” value is 2.
